From US20260265405A1 (NONA BIOSCIENCES SUZHOU, published 2026) come the findings set out here.

Experiment [1] concerns the target T1, membrane-bound human MSLN (on CHOK1-hu MSLN cells and endogenously on COV644 cells) (human, UniProt Q13421 296-598).
T1 construct: whole, on cells; The assay field of each row says which cell line carried the protein; also called mesothelin; cell surface MSLN
Nature of the experiment: flow cytometry on COV644 cells (endogenous human MSLN), Alexa Fluor 488 anti-human IgG detection [panel A]. As to the method:
(§1) Binding of recombinant anti-MSLN antibodies to human or cynomolgus MSLN-expressing cells was tested by flow cytometry.
(§2) In brief, anti-MSLN antibodies were serially diluted in staining buffer (PBS containing 2% FBS). 50 μL of diluted antibody solution was added to 50 μL of cell suspension containing 1-2×10⁵ cells and incubated at 4° C. for 1 hour. The cells were washed twice with staining buffer (PBS containing 2% FBS), and 100 μL of 1:1000 diluted florescent labeled anti-human IgG antibody (Alexa Fluor® 488 AffiniPure Goat Anti-Human IgG(H+L), Jackson ImmunoResearch, Catalog 109-545-088) was added into each well. After 1-hour incubation at 4° C., cells were washed twice with staining buffer and subjected to flow cytometry.

Experiment [2] deals with T1, membrane-bound human MSLN (on CHOK1-hu …). Nature of the experiment: cell-based or functional assay.
Experiment [3] concerns the target T2, recombinant human MSLN ECD His-tag protein (Acro Biosystems, Catalog #MSN-H5223) (human, UniProt Q13421 296-580, limits assumed).
T2 construct: extracellular domain; Bought protein; also called human MSLN protein; recombinant human MSLN-His tag; not shown: His-tag
Nature of the experiment: BLI (Octet Red384), antibody on AHC sensor, human MSLN-His in solution. As to the method: In the example, binding kinetics of anti-MSLN antibodies to soluble MSLN were analyzed by Octet Red384 (Fortebio). In Bio-Layer Interferometry (BLI) analysis, recombinant human MSLN-His tag (Acro Biosystems, Catalog #MSN-H5223) was serially diluted with 1× kinetic buffer (Fortebio). Anti-MSLN antibodies were diluted to 5 μg/mL. Then the diluted antibodies, antigen and regeneration buffer (10 mM glycine pH 1.75) were added to 96-well plates (Greiner). Rate constants for association and dissociation were measured using AHC sensor (Fortebio). The sensor surface was regenerated after each binding experiment with regeneration buffer. The traces were processed using Octet Data Analysis Software (version 11.0, Pall ForteBio, CA, USA).

The target in experiment [4] is T1, membrane-bound human MSLN (on CHOK1-hu …). Nature of the experiment: flow cytometry on COV644 cells. As to the method:
as §2, with “Binding of recombinant anti-MSLN antibodies to COV644 cell line (ECACC, catalog: 07071908) was tested by flow cytometry. In” for “In”
(In general: In flow cytometry, cells or beads pass a laser one at a time.)

The target is the same in experiment [5]. Nature of the experiment: flow cytometry on CHOK1-human MSLN cells, Alexa Fluor 488 anti-human IgG detection [panel A]. As to the method: as §1, §2
Experiment [6] has the same target. Nature of the experiment: flow cytometry on CHOK1-human MSLN cells, Alexa Fluor 488 anti-human IgG detection [panel B]. As to the method:
as §1, §2

Where a chain is given by its changes, count along the chain named. Names and notes keep the numbering of the source.

For orientation: EC50 (read off the curve) means the concentration at which the effect is half-maximal. Usually Kd stands for the free concentration of one partner at which half of the binding sites on the other are occupied at equilibrium, for simple one-to-one binding. A word on the kon: it is the second-order rate constant of association. For orientation: EC50 means the concentration at which the effect is half-maximal. A high value points to a less potent agent.

T1 sequence (Q13421 other isoform, or with tags, fused parts or gaps limits assumed): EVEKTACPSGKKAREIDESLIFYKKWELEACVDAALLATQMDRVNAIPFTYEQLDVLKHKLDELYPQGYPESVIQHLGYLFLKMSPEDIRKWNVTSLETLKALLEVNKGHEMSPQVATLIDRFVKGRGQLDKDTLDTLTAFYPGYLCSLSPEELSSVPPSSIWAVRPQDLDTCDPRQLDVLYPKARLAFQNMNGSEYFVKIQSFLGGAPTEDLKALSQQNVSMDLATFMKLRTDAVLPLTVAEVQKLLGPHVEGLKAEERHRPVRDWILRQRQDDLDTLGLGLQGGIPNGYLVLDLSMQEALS
T2 sequence (Q13421 other isoform, or with tags, fused parts or gaps limits assumed): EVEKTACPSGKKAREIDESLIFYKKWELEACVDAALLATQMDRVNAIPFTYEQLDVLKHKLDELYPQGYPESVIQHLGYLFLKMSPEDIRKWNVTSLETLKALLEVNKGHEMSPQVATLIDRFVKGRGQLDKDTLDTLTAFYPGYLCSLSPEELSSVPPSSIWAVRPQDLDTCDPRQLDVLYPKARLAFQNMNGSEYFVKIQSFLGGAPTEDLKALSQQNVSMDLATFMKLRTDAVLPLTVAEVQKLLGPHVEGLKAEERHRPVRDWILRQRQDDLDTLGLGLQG

B1: PR300159 (antibody, V domains shown)
VH: QVQLVESGGGVVQPGRSLRLSCAASGFTFSSDGMNWVRQAPGKGLEWVAVIWNDGSNKYYADSVKGRFTISRDNSKNTLYLQMNSLRAEDTAVYYCARDRGPLWPLDYWGQGTLVTVSS
VL: DIQMTQSPSTLSASVGDRVTITCRASQSISRWLAWYQQKPGKAPKLLIYKASSLESGVPSRFSGSGSGTEFTLTISNLQPDDFATFYCQQYNSYSRTFGQGTKVEIKR
notes: Parental antibody from Harbour H2L2 mice
For B1, the “EC50 (read off the curve)” value in experiment [1] is approximately 0.4 nM. In addition, the “Internalization FLU” value in experiment [2] is 22200 FLU. Further, in experiment [3], the Kd turned out to be 0.00965 nM and the kon was 1.28e+06 M⁻¹ s⁻¹. In experiment [4], the EC50 stood at 1.99 nM and the “TOP (MFI)” value is 2.07e+06 MFI. Further, the “EC50 (read off the curve)” value in experiment [5] was approximately 1 nM.

B2: PR300159-5 (antibody, V domains shown)
VH: B1 VH
VL: B1 VL with N92Q
notes: PTM removal variant of PR300159: light chain N92Q
B2: the “Internalization FLU” value in experiment [2] is 20900 FLU. For the same molecule, in experiment [3], the Kd is less than 0.001 nM and the kon stood at 1.05e+06 M⁻¹ s⁻¹. Besides, in experiment [4], the EC50 is 2.75 nM and the “TOP (MFI)” value came to 2.13e+06 MFI.

B3: PR300159-7 (antibody, V domains shown)
VH: B1 VH
VL: B1 VL with N92T
notes: PTM removal variant of PR300159: light chain N92T
On to B3, for which the “Internalization FLU” value in experiment [2] was 22400 FLU. Besides, in experiment [3], the Kd was less than 0.001 nM and the kon came out at 1.06e+06 M⁻¹ s⁻¹.

B4: PR300159-6 (antibody, V domains shown)
VH: B1 VH
VL: B1 VL with S93T
notes: PTM removal variant of PR300159: light chain S93T
As for B4, the “Internalization FLU” value in experiment [2] was 17800 FLU. In addition, in experiment [3], the Kd was less than 0.001 nM and the kon was determined as 819000 M⁻¹ s⁻¹. In addition, in experiment [4], a half-maximal effect (EC50) was put at 4.07 nM and the “TOP (MFI)” value is 2.19e+06 MFI.

B5: PR300159-4 (antibody, V domains shown)
VH: B1 VH
VL: B1 VL with S93A
notes: PTM removal variant of PR300159: light chain S93A
Consider B5, for which, in experiment [2], the “Internalization FLU” value worked out at 20900 FLU. In experiment [3], the Kd is less than 0.001 nM and the kon was 978000 M⁻¹ s⁻¹.

B6: PR300159-1 (antibody, V domains shown)
VH: B1 VH with G33A, D54E
VL: B1 VL with N92S
notes: PTM removal variant of PR300159: heavy chain G33A and D54E, light chain N92S
Take B6: in experiment [2], the “Internalization FLU” value was found to be 13700 FLU. In addition, in experiment [3], the Kd is less than 0.001 nM and the kon is 947000 M⁻¹ s⁻¹. For the same molecule, in experiment [4], the EC50 turned out to be 1.64 nM and the “TOP (MFI)” value was determined as 2.34e+06 MFI.

B7: PR300159-3 (antibody, V domains shown)
VH: B1 VH with G33A, G55A
VL: B1 VL
notes: PTM removal variant of PR300159: heavy chain G33A and G55A
On to B7, for which the “Internalization FLU” value in experiment [2] is 9180 FLU. For the same molecule, in experiment [3], the dissociation constant (Kd) is less than 0.001 nM and the kon was 828000 M⁻¹ s⁻¹. In experiment [4], a half-maximal response (EC50) required 2.14 nM and the “TOP (MFI)” value stood at 2.06e+06 MFI.

B8: PR300159-9 (antibody, V domains shown)
VH: B1 VH with G33A, D54E
VL: B1 VL with S93A
notes: PTM removal variant of PR300159: heavy chain G33A and D54E, light chain S93A
B8: the “Internalization FLU” value in experiment [2] is 8300 FLU. For the same molecule, in experiment [3], the Kd is less than 0.001 nM and the kon came to 566000 M⁻¹ s⁻¹. Moreover, in experiment [4], the EC50 stood at 8.25 nM and the “TOP (MFI)” value is 1.56e+06 MFI.

B9: PR300159-8 (antibody, V domains shown)
VH: B1 VH
VL: B1 VL with N92A
notes: PTM removal variant of PR300159: light chain N92A
Consider B9, for which the “Internalization FLU” value in experiment [2] is 21200 FLU. Further, in experiment [3], the Kd was less than 0.001 nM and the kon worked out at 956000 M⁻¹ s⁻¹. Moreover, in experiment [4], the EC50 is 2.33 nM and the “TOP (MFI)” value came to 2.15e+06 MFI.

B10: PR300186 (antibody, human IgG1, kappa, V domains shown)
VH: QVQLQESGPGLVKPSETLSLTCTVSGGSINNYYWSWVRQPPGKGLEWIGYIFYSGSTNSNPSLKSRVIISVDTSKNQFSLKLSSVTAADTAVYYCAREVGRIAVAGWFFDLWGRGTLVTVSS
VL: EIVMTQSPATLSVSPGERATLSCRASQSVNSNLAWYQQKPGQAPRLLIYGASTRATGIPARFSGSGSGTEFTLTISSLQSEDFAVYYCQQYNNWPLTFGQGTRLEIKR
notes: as for B1
For the molecule B10, in experiment [6], the “EC50 (read off the curve)” value was approximately 0.4 nM. In addition, the “Internalization FLU” value in experiment [2] was determined as 6050 FLU. Further, in experiment [3], the Kd is 18.6 nM and the kon worked out at 705000 M⁻¹ s⁻¹.

B11: PR300186-10 (antibody, human IgG1, kappa, V domains shown)
VH: B10 VH with N30Q, N58Q
VL: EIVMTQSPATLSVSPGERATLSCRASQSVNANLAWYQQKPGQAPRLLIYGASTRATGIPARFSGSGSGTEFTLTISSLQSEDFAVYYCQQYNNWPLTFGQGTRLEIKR
notes: PTM removal variant of PR300186: heavy chain N30Q and N58Q, light chain S31A
On to B11, for which the “Internalization FLU” value in experiment [2] was 8220 FLU. Also, in experiment [3], the dissociation constant Kd came out at 128 nM and the kon was determined as 431000 M⁻¹ s⁻¹.

B12: PR300186-9 (antibody, human IgG1, kappa, V domains shown)
VH: B10 VH
VL: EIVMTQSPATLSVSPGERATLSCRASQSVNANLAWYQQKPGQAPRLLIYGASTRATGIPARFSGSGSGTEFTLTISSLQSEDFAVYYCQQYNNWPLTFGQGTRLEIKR
Take B12: the “Internalization FLU” value in experiment [2] was found to be 8070 FLU.

B13: PR300186-3 (antibody, human IgG1, kappa, V domains shown)
VH: B10 VH with N30Q, N58Q
VL: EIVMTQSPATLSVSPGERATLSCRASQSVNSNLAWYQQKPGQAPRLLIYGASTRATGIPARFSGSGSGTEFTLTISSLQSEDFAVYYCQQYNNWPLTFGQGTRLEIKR
B13: the “Internalization FLU” value in experiment [2] was determined as 7040 FLU.
